Article PMC8442553 (Science (New York, N.Y.), 2019)

How the values were obtained:
Assay in all cases: cryo-EM structure
Rsc7 = molecular target: T1, Rsc7 (yeast, UniProt P32832 1-435)
T1 sequence: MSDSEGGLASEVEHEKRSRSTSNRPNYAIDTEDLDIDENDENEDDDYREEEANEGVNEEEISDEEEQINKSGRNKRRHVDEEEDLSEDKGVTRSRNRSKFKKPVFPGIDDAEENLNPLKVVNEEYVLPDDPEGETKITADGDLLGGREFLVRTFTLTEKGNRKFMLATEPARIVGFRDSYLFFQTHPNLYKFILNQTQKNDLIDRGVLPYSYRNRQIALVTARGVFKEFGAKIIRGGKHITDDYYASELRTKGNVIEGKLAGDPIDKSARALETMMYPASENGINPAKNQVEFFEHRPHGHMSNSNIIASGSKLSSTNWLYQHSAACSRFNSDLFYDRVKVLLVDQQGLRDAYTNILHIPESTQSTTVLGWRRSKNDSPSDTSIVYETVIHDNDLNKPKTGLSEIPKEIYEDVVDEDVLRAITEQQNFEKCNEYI

Sth1 = molecular target: T2, Sth1 (yeast, UniProt P32597 1-1359)
T2 sequence: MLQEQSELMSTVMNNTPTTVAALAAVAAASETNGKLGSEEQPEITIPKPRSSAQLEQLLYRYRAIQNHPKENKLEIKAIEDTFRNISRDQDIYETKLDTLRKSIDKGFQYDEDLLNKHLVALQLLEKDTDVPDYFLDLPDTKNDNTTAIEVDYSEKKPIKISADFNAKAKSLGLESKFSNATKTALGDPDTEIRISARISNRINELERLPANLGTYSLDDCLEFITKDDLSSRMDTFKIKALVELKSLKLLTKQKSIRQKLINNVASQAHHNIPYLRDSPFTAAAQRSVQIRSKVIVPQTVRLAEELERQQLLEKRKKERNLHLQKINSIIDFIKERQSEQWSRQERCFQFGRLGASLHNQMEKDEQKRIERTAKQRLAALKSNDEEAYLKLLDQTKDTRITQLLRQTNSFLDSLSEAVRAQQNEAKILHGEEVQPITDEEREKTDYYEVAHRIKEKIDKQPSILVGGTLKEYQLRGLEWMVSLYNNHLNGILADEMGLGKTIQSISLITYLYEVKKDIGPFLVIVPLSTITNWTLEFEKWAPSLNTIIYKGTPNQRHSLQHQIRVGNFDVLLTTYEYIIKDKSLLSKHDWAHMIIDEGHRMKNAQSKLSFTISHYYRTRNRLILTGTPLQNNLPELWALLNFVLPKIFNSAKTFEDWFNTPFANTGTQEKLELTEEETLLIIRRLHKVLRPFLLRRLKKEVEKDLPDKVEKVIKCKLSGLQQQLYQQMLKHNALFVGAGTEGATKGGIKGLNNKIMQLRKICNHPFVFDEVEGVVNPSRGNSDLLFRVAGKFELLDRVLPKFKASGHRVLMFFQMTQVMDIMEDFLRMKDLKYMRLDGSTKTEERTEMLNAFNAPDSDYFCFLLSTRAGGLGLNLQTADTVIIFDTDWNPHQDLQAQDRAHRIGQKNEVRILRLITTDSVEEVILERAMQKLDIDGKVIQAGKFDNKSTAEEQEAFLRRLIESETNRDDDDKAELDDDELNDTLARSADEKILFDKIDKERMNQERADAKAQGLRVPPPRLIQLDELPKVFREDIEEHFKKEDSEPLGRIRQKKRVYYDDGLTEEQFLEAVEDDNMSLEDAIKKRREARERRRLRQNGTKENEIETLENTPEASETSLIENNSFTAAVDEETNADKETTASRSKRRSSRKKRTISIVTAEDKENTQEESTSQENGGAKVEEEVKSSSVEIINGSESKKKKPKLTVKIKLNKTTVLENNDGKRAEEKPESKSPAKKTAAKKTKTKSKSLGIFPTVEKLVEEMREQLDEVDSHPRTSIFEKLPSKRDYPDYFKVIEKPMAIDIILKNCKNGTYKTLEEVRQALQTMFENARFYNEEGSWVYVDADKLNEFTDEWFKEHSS

cryo-EM structure = molecular target: the molecule itself
Rsc3 = molecular target: T3, Rsc3 (yeast, UniProt Q06639 1-885)
T3 sequence: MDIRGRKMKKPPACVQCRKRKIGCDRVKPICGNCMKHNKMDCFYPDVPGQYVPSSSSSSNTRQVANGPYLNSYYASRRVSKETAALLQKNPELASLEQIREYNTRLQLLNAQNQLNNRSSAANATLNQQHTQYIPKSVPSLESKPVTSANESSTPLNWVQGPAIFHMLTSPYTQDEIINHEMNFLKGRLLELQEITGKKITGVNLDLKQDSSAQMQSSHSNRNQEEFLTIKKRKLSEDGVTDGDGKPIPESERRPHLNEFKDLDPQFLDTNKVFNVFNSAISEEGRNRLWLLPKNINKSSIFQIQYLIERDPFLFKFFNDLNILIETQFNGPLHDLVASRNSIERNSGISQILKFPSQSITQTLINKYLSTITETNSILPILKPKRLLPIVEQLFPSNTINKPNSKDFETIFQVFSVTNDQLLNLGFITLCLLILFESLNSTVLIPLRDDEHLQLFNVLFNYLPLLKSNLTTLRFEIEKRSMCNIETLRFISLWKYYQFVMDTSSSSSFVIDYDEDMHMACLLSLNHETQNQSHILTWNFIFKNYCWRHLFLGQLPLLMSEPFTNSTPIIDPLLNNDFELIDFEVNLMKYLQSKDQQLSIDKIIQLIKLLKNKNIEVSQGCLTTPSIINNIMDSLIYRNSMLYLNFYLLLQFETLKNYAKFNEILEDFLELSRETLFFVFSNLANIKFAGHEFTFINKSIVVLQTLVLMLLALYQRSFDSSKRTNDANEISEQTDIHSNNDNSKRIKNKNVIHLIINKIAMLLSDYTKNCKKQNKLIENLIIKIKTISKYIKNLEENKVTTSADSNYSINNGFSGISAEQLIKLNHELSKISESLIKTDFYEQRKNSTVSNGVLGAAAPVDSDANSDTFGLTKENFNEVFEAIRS

B1: Sfh1 (natural protein, yeast)
chain: MSHQNQLIPQAYISNFHNRLTNEDDGIPIFTMAQQTRQHKRAKVVNYAEYDNDLFDEFNMNGSNFNNADTHYKDNAVSHENTPALTNGVTMDGSEYNVLENMNGADSIISNNKYDAGSNMVVESLSGLNSNNNASNGPSNKAQAQDIGNAVLPDLQDQHHNPFNILRYPKIRDTFINGKVVSPYRLNTDQETKANANSGEAIMIPITLDIEHMGHTIKDQFLWNYNDDSISPEEFASIYCKDLDMTSATLQTQIANIIKEQLKDLENIAATEIMSDLHVIINLTCNLQDRFFEDNFQWNLNDKSLTPERFATSIVQDLGLTREFIPLISQSLHETILKIKKDWVDGHLIQDHVPNDAAFGYLSGIRLDIDELGSNWCPRVEILTKEEIQKREIEKERNLRRLKRETDRLSRRGRRRLDDLETTMRM
B1: binds (Rsc7).

B2: Rsc8 (natural protein, yeast)
chain: MSDTEKDKDVPMVDSHEATEEPPTTSTNTPSFPHLAQEQAKEESATLGAEVAHKKINYEQEAQKLEEKALRFLAKQTHPVIIPSFASWFDISKIHEIEKRSNPDFFNDSSRFKTPKAYKDTRNFIINTYRLSPYEYLTITAVRRNVAMDVASIVKIHAFLEKWGLINYQIDPRTKPSLIGPSFTGHFQVVLDTPQGLKPFLPENVIKQEVEGGDGAEPQVKKEFPVNLTIKKNVYDSAQDFNALQDESRNSRQIHKVYICHTCGNESINVRYHNLRARDTNLCSRCFQEGHFGANFQSSDFIRLENNGNSVKKNWSDQEMLLLLEGIEMYEDQWEKIADHVGGHKRVEDCIEKFLSLPIEDNYIREVVGSTLNGKGGDSRDGSVSGSKLMECVNDAVQTLLQGDDKLGKVSDKSREISEKYIEESQAIIQELVKLTMEKLESKFTKLCDLETQLEMEKLKYVKESEKMLNDRLSLSKQILDLNKSLEELNVSKKLVLISEQVDSGIQLVEKDQEGDDEDGNTATGHGVKRVGKEGEEVGEGDSIAKLQPQVYKPWSL
B2: binds (Sth1); binds (cryo-EM structure).

B3: Rsc30 (natural protein, yeast)
chain: MMDMQVRKVRKPPACTQCRKRKIGCDRAKPICGNCVKYNKPDCFYPDGPGKMVAVPSASGMSTHGNGQGSNHFSQGNGVNQKNVMIQTQYPIMQTSIEAFNFSFNPSVDTAMQWTKAASYQNNNTNNNTAPRQNSSTVSSNVHGNTIVRSDSPDVPSMDQIREYNTRLQLVNAQSFDYTDNPYSFNVGINQDSAVFDLMTSPFTQEEVLIKEIDFLKNKLLDLQSLQLKSLKEKSNLNADNTTANKINKTGENSKKGKVDGKRAGFDHQTSRTSQSSQKYFTALTITDVQSLVQVKPLKDTPNYLFTKNFIIFRDHYLFKFYNILHDICHINQFKVSPPNNKNHQQYMEVCKVNFPPKAIIIETLNSESLNNLNIEEFLPIFDKTLLLEFVHNSFPNGDTCPSFSTVDLPLSQLTKLGELTVLLLLLNDSMTLFNKQAINNHVSALMNNLRLIRSQITLINLEYYDQETIKFIAITKFYESLYMHDDHKSSLDEDLSCLLSFQIKDFKLFHFLKKMYYSRHSLLGQSSFMVPAAENLSPIPASIDTNDIPLIANDLKLLETQAKLINILQGVPFYLPVNLTKIESLLETLTMGVSNTVDLYFHDNEVRKEWKDTLNFINTIVYTNFFLFVQNESSLSMAVQHSSNNNKTSNSERCAKDLMKIISNMHIFYSITFNFIFPIKSIKSFSSGNNRFHSNGKEFLFANHFIEILQNFIAITFAIFQRCEVILYDEFYKNLSNEEINVQLLLIHDKILEILKKIEIIVSFLRDEMNSNGSFKSIKGFNKVLNLIKYMLRFSKKKQNFARNSDNNNVTDYSQSAKNKNVLLKFPVSELNRIYLKFKEISDFLMEREVVQRSIIIDKDLESDNLGITTANFNDFYDAFYN
B3: binds (Rsc3).
